Source: patent US20130196320A1, “METHOD FOR IMPROVING CLEAVAGE OF DNA BY ENDONUCLEASE SENSITIVE TO METHYLATION” (CELLECTIS, priority 2010, published 2013)
Where two headings read alike, the source gives them in different places. Values belong to the molecule of their own block, whether it stands above or below them.

Columns and labels:
XPC4.1 DNA target = assay: In vitro binding assay, fluorescence anisotropy of fluorescein-labeled XPC4.1 duplex
Experimental: (§1) FIG. 7: Spectrofluorimetric titration of fluorescein-labeled XPC4.1 by XPC4. 50 nM of XPC4.1 duplex was incubated with increasing concentrations of XPC4 (from 0 to 800M) in binding buffer (10 mM Tris-HCl, 150 mM NaCl, 10 mM CaCl2, 10 mM DTT, pH8) at 25° C. After 30 minutes incubation, the fluorescence anisotropy of the mixture was recorded with a Pherastar Plus (BMG Labtech) operating in fluorescence polarization end point mode with excitation and emission wavelengths set to 495 and 520 nm respectively. Normalized fluorescence anisotropy is plotted as a function of XPC4 concentration. Apparent dissociation constant were determined by fitting raw data by an hyperbolic function (Ax=(A∞*[Meganuclease])/(Kd+[Meganuclease]) with Ax, the fluorescence anisotropy value obtained at a given meganuclease concentration, A∞ the fluorescence anisotropy value obtained at saturating concentration of meganuclease and Kd the dissociation constant of the equilibrium studied).
(§2) Fluorescein labeled C1234 oligonucleotides were synthesized and HPLC-purified by Eurogentec. […] C 1234 duplex and fluorescein final concentrations were assessed by spectrophotometry using their respective extinction coefficients ε260nm=62900 M^−1 cm^−1 and ε495nm=83000 M^−1 cm^−1. […]

ADCY9.1 DNA target = assay: In vitro binding assay, fluorescence anisotropy of fluorescein-labeled ADCY9.1 duplex
Experimental: as §1, with “12:” for “7:”, “ADCY9.1” for “XPC4.1”, “ADCY9.” for “XPC4.”, “ADCY9” for “XPC4”, “1.5 μM)” for “800M)”
as §2

B1: XPC4: engineered meganuclease (SEQ ID NO: 2) designed to cleave xeroderma pigmentosum group C gene (XPC) (protein)
chain: MANTKYNEEFLLYLAGFVDGDGSIIAQIKPNQSHKFKHALQLTFKVTQKTQRRWFLDKLVDEIGVGYVQDSGSVSNYILSEIKPLHNFLTQLQPFLELKQKQANLALKIIEQLPSAKESPDKFLEVCTWVDQVAALNDSKTRKTTSETVRAVLDSLSEKKKSSPAAGGSDKYNQALSKYNQALSKYNQALSGGGGSNKKFLLYLAGFVDSDGSIIAQIKPNQSHKFKHQLSLAFQVTQKTQRRWFLDKLVDRIGVGYVRDRGSVSDYILSKIKPLHNFLTQLQPFLKLKQKQANLVLKIIEQLPSAKESPDKFLEVCTWVDQVAALNDSKTRKTTSETVRAVLDSLSEKKKSSP
Kd (XPC4.1 DNA target; XPC4.1_Me −11a/−10b & +10a/+11b (fully methylated)): 127 ± 22 nM | Kd (XPC4.1 DNA target; unmethylated XPC4.1): 108 ± 21 nM

Kd (ADCY9.1 DNA target; ADCY9.1_Me −3a/−2b (fully methylated), sigmoidal pattern, read-out: Kd (apparent)): 431 ± 30 nM | Kd (ADCY9.1 DNA target; unmethylated ADCY9.1, read-out: Kd): 190 ± 19 nM
B2: ADCY9: engineered meganuclease (SEQ ID NO: 3) designed to cleave adenylate cyclase 9 gene (protein)
chain: MANTKYNEEFLLYLAGFVDGDGSIIAQIKPNQSYKFKHQLSLTFRVTQKTQRRWFLDKLVDEIGVGYVRDSGSVSNYDLSEIKPLHNFLTQLQPFLELKQKQANLVLKIIEQLPSAKESPDKFLEVCTWVDQVAALNDSKTRKTTSETVRAVLDSLSEKKKSSPAAGGSDKYNQALSKYNQALSKYNQALSGGGGSNKKFLLYLAGFVDSDGSIIAQIKPDQSYKFKHQLGLTFQVTQKTQRRWFLDKLVDRIGVGYVRDRGSVSDYILSEIKPLHNFLTQLQPFLKLKQKQANLVLKIIEQLPSAKESPDKFLEVCTWVDQVAALNDSKTRKTTSETVRAVLDSLSEKKKSSP
